Measurements as given in article PMC4930772.

Target: PP2A B56γ1 30-380 (UniProt Q13362)
Experiment: ITC
[1] = reference: wild type, sites T680
[2] = reference: wild type, sites S670
[3] = reference: wild type, sites S676

Substance: BubR1 647-720 (from UniProt O60566) 3D (S670D/S676D/T680D)
- KD (reference: wild type, sites S670,S676,T680): same; reference 2.91 ± 0.50

Substance: BubR1 647-720 (from UniProt O60566) AAAA (E678A/T680A/H681A)
- KD [1]: weaker; reference 2.91 ± 0.50

Substance: BubR1 647-720 (from UniProt O60566) DDT (S670D/S676D)
- KD (reference: wild type, sites S670,S676): same; reference 2.91 ± 0.50

Substance: BubR1 647-720 (from UniProt O60566) DSD (S670D/T680D)
- KD (reference: wild type, sites S670,T680): same; reference 2.91 ± 0.50

Substance: BubR1 647-720 (from UniProt O60566) DST (S670D)
- KD [2]: same; reference 2.91 ± 0.50

Substance: BubR1 647-720 (from UniProt O60566) S670A
- KD [2]: same; reference 2.91 ± 0.50

Substance: BubR1 647-720 (from UniProt O60566) S676A
- KD [3]: same; reference 2.91 ± 0.50

Substance: BubR1 647-720 (from UniProt O60566) SDD (S676D/T680D)
- KD (reference: wild type, sites S676,T680): same; reference 2.91 ± 0.50

Substance: BubR1 647-720 (from UniProt O60566) SDT (S676D)
- KD [3]: same; reference 2.91 ± 0.50

Substance: BubR1 647-720 (from UniProt O60566) SSD (T680D)
- KD [1]: same; reference 2.91 ± 0.50

Substance: BubR1 667-681 (from UniProt O60566) B56γ1 R188A
- KD (reference: B56γ1 wild type, sites S670): weaker; reference 0.25 ± 0.06

Substance: BubR1 667-681 (from UniProt O60566) pS670 15-mer
- KD (reference: unphosphorylated 15-mer, sites S670): stronger; reference 2.80 ± 0.30

Substance: BubR1 667-681 (from UniProt O60566) pS676 15-mer
- KD (reference: unphosphorylated 15-mer, sites S676): stronger; reference 2.80 ± 0.30

Substance: BubR1 667-681 (from UniProt O60566) pS676/pT680 15-mer
- KD (reference: pS676 15-mer, sites T680): same; reference 0.69 ± 0.11
- KD (reference: unphosphorylated 15-mer, sites S676,T680): stronger; reference 2.80 ± 0.30
